Common to all, as to assay: BIAcore
Background: SPR reads the build-up and loss of mass on a sensor chip optically.

For assay [1], the target named is T1, Recombinant human IL-17A/F heterodimer (UniProt Q16552 24-155; Q96PD4 31-163).
For assay [2], the target named is T2, Human IL-17F (R&D Systems, cat #1335-IL-025/CF) (UniProt Q96PD4 31-163).
T2 chain: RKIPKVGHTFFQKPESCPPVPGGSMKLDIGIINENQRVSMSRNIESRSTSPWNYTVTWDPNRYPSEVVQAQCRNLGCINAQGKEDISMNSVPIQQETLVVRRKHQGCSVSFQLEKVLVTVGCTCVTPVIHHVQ

Assay [3] concerns the target T3, Human IL-17A (R&D Systems, cat #317-IL-050/CF) (UniProt Q16552 20-155).
In assay [4] the target is cyno IL17F.
Assay [5] addresses T1, Recombinant human IL-17A/F heterodimer. This is another data set of the same source.
Assay [6] deals with T2, Human IL-17F (R&D Systems, cat …).
The target in assay [7] is T3, Human IL-17A (R&D Systems, cat …). This is another data set of the same source.
Assay [8] has as its target cyno IL17F. This is another data set of the same source.
The target of assay [9] is T1, Recombinant human IL-17A/F heterodimer. This is another data set of the same source.
For assay [10], the target named is T2, Human IL-17F (R&D Systems, cat …).
For assay [11], the target named is T3, Human IL-17A (R&D Systems, cat …). This is another data set of the same source.
The target of the next assay is rhesus IL17A (PUR17200).
The target in a further assay is Bi-specific.
Assay [12] concerns the target T2, Human IL-17F (R&D Systems, cat …).

Broadly, the Kd is the equilibrium constant for the complex coming apart.

Read-outs that look alike come from different tables or passages of the source.

T3 sequence (Q16552 20-155): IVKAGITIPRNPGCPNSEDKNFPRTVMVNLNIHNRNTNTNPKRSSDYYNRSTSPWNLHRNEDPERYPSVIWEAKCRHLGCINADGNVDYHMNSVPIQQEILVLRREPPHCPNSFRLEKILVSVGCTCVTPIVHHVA

B1: YW278.15.9 (antibody, V domains shown)
VH: EVQLVESGGGLVQPGGSLRLSCAASGFTFTDYDISWVRQAPGKGLEWVASIDPYEGYTYYADSVKGRFTISADTSKNTAYLQMNSLRAEDTAVYYCARYLYWSYVMDYWGQGTLVTVSS
VL: DIQMTQSPSSLSASVGDRVTITCRASQDVSTAVAWYQQKPGKAPKLLIYSASFLYSGVPSRFSGSGSGTDFTLTISSLQPEDFATYYCQQSQNPQTTFGQGTKVEIKR
For the molecule B1, the Kd was 22.9 pM in assay [1], 18.1 pM in assay [2] and 15.5 pM in [3].

B2: YW278.15.2 (antibody, V domains shown)
VH: EVQLVESGGGLVQPGGSLRLSCAASGFSFIDYDISWVRQAPGKGLEWVASISPYDGYTYYADSVKGRFTISADTSKNTAYLQMNSLRAEDTAVYYCARYLYWSYVMDYWGQGTLVTVSS
VL: DIQMTQSPSSLSASVGDRVTITCRASQDVSTAVAWYQQKPGKAPKLLIYSASFLYSGVPSRFSGSGSGTDFTLTISSLQPEDFATYYCQQYYIYPATFGQGTKVEIKR
Consider B2, for which the Kd with cyno IL17F [4] came to 209 pM; in assay [5], 10.4 pM; in assay [6], 31.5 pM; in assay [7], 11.1 pM.

B3: YW278.15.18 (antibody, V domains shown)
VH: EVQLVESGGGLVQPGGSLRLSCAASGFTFTDYDISWVRQAPGKGLEWVASISPPDCYTYYADSVKGRFTISADTSKNTAYLQMNSLRAEDTAVYYCARYLYWSYVMDYWGQGTLVTVSS
VL: DIQMTQSPSSLSASVGDRVTITCRASQDVSTAVAWYQQKPGKAPKLLIYSASFLYSGVPSRFSGSGSGTDFTLTISSLQPEDFATYYCQQSYTAKLTFGQGTKVEIKR
B3: the dissociation constant Kd in the assay with cyno IL17F [8] came to 86.1 pM; in the assay with cyno IL17F [4], 63.2 pM; in assay [9], 22.5 pM; in assay [10], 29.1 pM; in [11], 18.9 pM; with rhesus IL17A (PUR17200), 38.1 pM. Further, the Kd was determined as 14 pM in assay [5], 13.5 pM in assay [6] and 13.7 pM in [7].

B4: YW278.15.18.C55A (antibody, V domains shown)
VH: EVQLVESGGGLVQPGGSLRLSCAASGFTFTDYDISWVRQAPGKGLEWVASISPPDAYTYYADSVKGRFTISADTSKNTAYLQMNSLRAEDTAVYYCARYLYWSYVMDYWGQGTLVTVSS
VL: DIQMTQSPSSLSASVGDRVTITCRASQDVSTAVAWYQQKPGKAPKLLIYSASFLYSGVPSRFSGSGSGTDFTLTISSLQPEDFATYYCQQSYTAKLTFGQGTKVEIKR
For the molecule B4, binding in [10] was characterised by a dissociation constant (Kd) of 18.6 pM.

B5: YW278.15.18.C55S (antibody, V domains shown)
VH: EVQLVESGGGLVQPGGSLRLSCAASGFTFTDYDISWVRQAPGKGLEWVASISPPDSYTYYADSVKGRFTISADTSKNTAYLQMNSLRAEDTAVYYCARYLYWSYVMDYWGQGTLVTVSS
VL: DIQMTQSPSSLSASVGDRVTITCRASQDVSTAVAWYQQKPGKAPKLLIYSASFLYSGVPSRFSGSGSGTDFTLTISSLQPEDFATYYCQQSYTAKLTFGQGTKVEIKR
In assay [10], B5 came in with a Kd of 19 pM.

B6: YW278.15.3 (antibody, V domains shown)
VH: EVQLVESGGGLVQPGGSLRLSCAASGFTFTDYDISWVRQAPGKGLEWVASISPSDGYTYYADSVKGRFTISADTSKNTAYLQMNSLRAEDTAVYYCARYLYWSYVMDYWGQGTLVTVSS
VL: DIQMTQSPSSLSASVGDRVTITCRASQVISSSLAWYQQKPGKAPKLLIYGASFFYSGVPSRFSGSGSGTDFTLTISSLQPEDFATYYCQQHNDLPLTFGQGTKVEIKR
On to B6, for which the dissociation constant Kd turned out to be 93.5 pM in assay [1]; 115 pM in assay [2]; 24.2 pM in assay [3]; 16.7 pM in assay [5]; 28.3 pM in assay [6]; 15.2 pM in assay [7].

B7: YW278.15.2.D54E (antibody, V domains shown)
VH: EVQLVESGGGLVQPGGSLRLSCAASGFSFIDYDISWVRQAPGKGLEWVASISPYEGYTYYADSVKGRFTISADTSKNTAYLQMNSLRAEDTAVYYCARYLYWSYVMDYWGQGTLVTVSS
VL: DIQMTQSPSSLSASVGDRVTITCRASQDVSTAVAWYQQKPGKAPKLLIYSASFLYSGVPSRFSGSGSGTDFTLTISSLQPEDFATYYCQQYYIYPATFGQGTKVEIKR
On to B7, for which, in assay [2], the affinity, expressed as Kd, was 12 pM.

B8: IL17F (ligand)
chain: RKIPKVGHTFFQKPESCPPVPGGSMKLDIGIINENQRVSMSRNIESRSTSPWNYTVTWDPNRYPSEVVQAQCRNLGCINAQGKEDISMNSVPIQQETLVVRRKHQGCSVSFQLEKVLVTVGCTCVTPVIHHVQ
In the assay with Bi-specific, B8 came in with a dissociation constant Kd of 710 pM.

B9: YW279.1.20 (antibody, V domains shown)
VH: EVQLVESGGGLVQPGGSLRLSCAASGFSFTSYMMSWVRQAPGKGLEWVSTIYPESGATDYADSVKGRFTISADTSKNTAYLQMNSLRAEDTAVYYCAREGYYYSTSIKYYPWFDYWGQGTLVTVSS
VL: DIQMTQSPSSLSASVGDRVTITCRASQRIKRYLAWYQQKPGKAPKLLIYGASSRASGVPSRFSGSGSGTDFTLTISSLQPEDFATYYCQQRFSQHITFGQGTKVEIKR
In [2], B9 had a Kd of 1590 pM.

B10: YW279.1.21 (antibody, V domains shown)
VH: EVQLVESGGGLVQPGGSLRLSCAASGFSFTSYMMSWVRQAPGKGLEWVSTIYPESGATDYADSVKGRFTISADTSKNTAYLQMNSLRAEDTAVYYCAREGYYYSTSIKYYPWFDYWGQGTLVTVSS
VL: DIQMTQSPSSLSASVGDRVTITCRASQSISSYLAWYQQKPGKAPKLLIYGASSRASGVPSRFSGSGSGTDFTLTISSLQPEDFATYYCQQRYSWHTTFGQGTKVEIKR
For B10, the Kd in [1] was found to be 11800 pM; in assay [2], 82.3 pM; in assay [3], 5090 pM.

B11: YW265.01 (antibody, V domains shown)
VL: DIQMTQSPSSLSASVGDRVTITCRASQSISSYLAWYQQKPGKAPKLLIYGASSRASGVPSRFSGSGSGTDFTLTISSLQPEDFATYYCQQYYSSPLTFGQGTKVEIKR
VH: EVQLVESGGGLVQPGGSLRLSCAASGYSFTSPYISWVRQAPGKGLEWVASIFYYSGATDYADSVKGRFTISADTSKNTAYLQMNSLRAEDTAVYYCARGGYGYNQWFYSIYQSYFDYWGQ
As for B11, in assay [12], binding was put at a Kd of 620 pM.

B12: YW279.1.22 (antibody, V domains shown)
VH: EVQLVESGGGLVQPGGSLRLSCAASGFSFPSYFISWVRQAPGKGLEWVSMIYPVSGATVYADSVKGRFTISADTSKNTAYLQMNSLRAEDTAVYYCAREGYYYSTSIKYYPWFDYWGQGTLVTVSS
VL: DIQMTQSPSSLSASVGDRVTITCRASQSISSYLAWYQQKPGKAPKLLIYGASSRASGVPSRFSGSGSGTDFTLTISSLQPEDFATYYCQQRYSLPITFGQGTKVEIKR
In the case of B12, the Kd is 690 pM in assay [1], 1760 pM in [2] and 118 pM in assay [3].

These data come from patent US20100055103A1 (published 2010).
